Measured values: publication PMC3643605 (Nucleic Acids Research, 2013)
Where two headings read alike, the source gives them in different places.

T1: DMP12 (Neisseria meningitidis conserved hypothetical protein NMB2123), tag-free (N. meningitidis, UniProt Q9JXC6 1-118)
T1 sequence (looked up): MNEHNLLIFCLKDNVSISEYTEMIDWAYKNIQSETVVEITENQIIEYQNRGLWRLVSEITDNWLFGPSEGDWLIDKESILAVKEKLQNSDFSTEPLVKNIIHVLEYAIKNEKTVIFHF

T2: HU (C-His6) (Neisseria meningitidis, UniProt P64389 1-89)
T2 sequence: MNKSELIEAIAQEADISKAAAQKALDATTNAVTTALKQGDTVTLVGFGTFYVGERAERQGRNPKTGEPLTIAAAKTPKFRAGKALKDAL

B1: C-terminal His6-tagged Neisseria HU protein (natural protein, UniProt P64389 1-89, looked up)
chain: T2 sequence
B2: N-terminal His10-tagged DMP12 (natural protein, N. meningitidis, UniProt Q9JXC6 1-118, looked up)
chain: T1 sequence (looked up)
B3: 8mer dsDNA (dsDNA)
DNA 1: CTCGCGAG
DNA 2: CTCGCGAG

Assays:
AUC = molecular target: the molecule itself; test: AUC
[1] = molecular target: T1, DMP12 (Neisseria meningitidis conserved …); test: ITC
[2] = molecular target: T1, DMP12 (Neisseria meningitidis conserved …); test: ITC; remark: listed apart in the source
SEC = molecular target: the molecule itself; test: SEC
[3] = molecular target: B1; test: SEC
HU (C-His6) = molecular target: T2, HU (C-His6); test: ITC

B1 was tested, and the “stoichiometry N” value (AUC) was 2, the Kd [1] was 2810 ± 430 nM and the Kd [2] was 2820 ± 430 nM. For the same binder, the dH [2] was -6.17 ± 0.55 kcal/mol, the “stoichiometry N” value [2] was 0.96 ± 0.01 and the “stoichiometry N” value (SEC) was 2.

B2 was tested, and the “stoichiometry N” value [3] was 1 DMP12 monomer per HU dimer.

B3 was tested, and the Kd (HU (C-His6)) was 720 ± 60 nM.
